Measurements as given in the DeepSol protein solubility set.

Experiment: soluble on expression in E. coli; label from the status in PepcDB or PDB records

Question: With “MSADYPRDLIGYGNNPPHPHWPGDARIALSFVLNYEEGGERCVLHGDKESEAFLSEMVAAQPLQGVRHMSMESLYEYGSRAGVWRLLKLFKRRNVPLTVFAVAMAAQRNPEVIRAMVADGHEICSHGYRWIDYQYMDEAQEREHMLEAIRILTELTGQRPVGWYTGRTGPNTRRLVMEEGGFLYDSDTYDDDLPYWDPASTAEKPHLVIPYTLDTNDMRFTQVQGFNNGEQFFQYLKDAFDVLYEEGATAPKMLSIGLHCRLIGRPARMAALERFIQYAQSHDKVWFARREDIARHWHREHPFQETEA” as the sequence, how does the “soluble on expression in E. coli” value read?
Answer: soluble

Question: For “MGSDKIHHHHHHMCTVQSNITSHVKKLEEELGVILLNRHNPVTLTNAGHQLHSYAVQMIALHNKAKTIFREGDIDPNETIRLGSMETTAAIRLPQLLNECMQQHPNLPLELQTHPTGYLLNAVQQGEVDCAFVASKYVIPELYSFPVWQEQLVLVCPKQQIDFPDIATLAKTRFIAFRQGCSYRHAIELFLNDHSVPPSQIMEMGSLDGIVSCVELGVGFALLPKSYLNKVADKVSLSCFEINTESAHFTTYLVAQPPETWGSNLKQFICFIEQQFIQKCA”, which “soluble on expression in E. coli” value is on record?
Answer: not soluble

Question: With “SLGMIKNSLFGSVETWPWQVLSKGDKEEVAYEERACEGGKFATVEVTDKPVDEALREAMPKVAKYAGGTNDKGIGMGMTVPISFAVFPNEDGSLQKKLKVWFRIPNQFQSDPPAPSDKSVKIEEREGITVYSMQFGGYAKEADYVAQATRLRAALEGTATYRGDIYFCTGYDPPMKPYGRRNEIWLLKT” as the sequence, how does the “soluble on expression in E. coli” value read?
Answer: soluble

Question: With “MNELFLSELKSADKDLLQKLVLIEEHVFADSAQEPVQTEASLDSLELIISQCIAIISEIESPLEKAEALLNELYFQHLFIDRYQTRWPISAYSVAKGLNQRAMSPVVKAALVKEIITACGFETDLVFIPNKIMVRLCCDEQYAIIFDAITGESLDWTELDVRLDELDGDPGEQELKAIDDSVALVEHLSALKNVLIHEQAFDKALTCVDVILSLNPDDPLQRRDRGFLLHQLDCFKVAVDDYRYFVEQCPKDPAAKILKIQLEKIDVGNNVLHLEHHHHHH” as the sequence, how does the “soluble on expression in E. coli” value read?
Answer: soluble

Question: Which “soluble on expression in E. coli” value does the source give for “MGHHHHHHSHMSSYHCAMNNENARLLTFQTWPLTFLSPTDLAKAGFYYIGPGDRVACFACGGKLSNWEPKDNAMSEHLRHFPKCPFIENQLQDTSRYTVSNLSMQTHAARFKTFFNW” here?
Answer: not soluble

Question: With “MGSDKIHHHHHHDLLHESYGQVVSEDYVPKTEEDVSYLVNAAYIPWRETLLQWNGVVRAQELCADQDVLPARDGIGWVDGYIYKRWHQHTWTTEDDGVLQGWERTYNGVNTCNRILSQIEEGVISVDGETKEKLIAELKVLRASYYYILIDLYGNVPIVTDFKDTSLPQQSTRKEVFDFIVKEITENMDLLSETPRGYYYGRFNKWAAHTLLAKMYLNAEVWSGTAQWQKCIDECDIVINYAEKSGEYALENNQKDVFVTHNENSKEIIFALPFDEIYVTGWNDFDFHMYTLAPENQDTYQLTARPWGGVCAVPQFINSFDEDDARLEDNYIQGQQYTYSGEILKRSIDGKPLIYTVDVPSIDQSDVDDGFRWGKFEYATGITNRLSNDWPLLRYADVLMMKAESLMRLGKSGAGALVTQVRERAFKNEPEKAQVTDAELMGGSVYDYGRRDSYKTEHDGGTDIKYGRFLDELGWEFCQEGRRRQDMIRFGIFTTKAWFSHDKSDETKNLYPIPNKVLLTNSNLKQNPGYSK” as the sequence, how does the “soluble on expression in E. coli” value read?
Answer: not soluble

Question: For “MRETKEWRGTTSTSRVFVQKGYQLSDELALRKVQVLERRYGGMQLAHRAATVIQRAWREYCIMKQWMVIRHKHDTIPDHLDARCGVSNSQRNELSLTSRYATSLSAQLRIDRAARSTTLDRSPPSPAPPVLVNLQNSNMIDSLMSPRLGNRRFGAAASRCAPAAAELTSTEVWLPRPSLVNHNPAHSNSLPRLQLLTAWGFVKNSPDSLASLLFGRRGLSKSMIGEYIGTLHSPYHSLVLKYFTALIDIRGLEVDVALRKAMQFFILPKEAEKIDRIIQAFALHYSKSNPKRTSHYRGGWDTIHLLSFAIIMLNTDLHSPNVKQRMTQADFVKNLRGQDKISGEKNGEDIDRKTLEGIYDRIKKDELKAGDDHVAQVQRVDRAIVGKDKPRLTETPRRLVCYCRLQQVSDPTKRQSSSARERDVFLFNDMIVVAKGVRRGSTSMAGCTYTLKQWTLLLGAHVTEFQRGQYEFGLTITCPNKDKIHFNARNFEDRCHFVADVTESIREATEMEQVRLEMEMEQHTTTTIRPDNQRDSGLPDMDESMKLSNGSNSSAGSSNSSTNGVNNSSFRRLSFNSLDSGVVEEHLDAC”, which “soluble on expression in E. coli” value is on record?
Answer: not soluble

Question: For “GPGSMAGWASLGRSFRTPESRSEELVKKAIEGDALRIGSGDTVKHEEAVSPFAAKLFSNITGSQRYVLIAVRHTQPATVDESRKAAIFHHDIRQAGIAMGHDEILAVGHARLEPGEQFGWREPLMLFVQIILIDKTGFHPSTCSLDAMFRLVVEWAGSRIKRMQPPHCISHDGYFLGRSKVR”, which “soluble on expression in E. coli” value is on record?
Answer: not soluble

Question: Which “soluble on expression in E. coli” value does the source give for “MNRPSGRAADQLRPIRITRHYTKHAEGSVLVEFGDTKVICTVSAESGVPRFLKGQGQGWLTAEYGMLPRSTGERNQREASRGKQGGRTLEIQRLIGRSLRAALDLSKLGENTLYIDCDVIQADGGTRTASITGATVALIDALAVLKKRGALKGNPLKQMVAAVSVGIYQGVPVLDLDYLEDSAAETDLNVVMTDAGGFIEVQGTAEGAPFRPAELNAMLELAQQGMQELFELQRAALAE” here?
Answer: soluble

Question: With “SFFTCGPNEAMVVSGFCRSPPVMVAGGRVFVLPCIQQIQRISLNTLTLNVKSEKVYTRHGVPISVTGIAQVKIQGQNKEMLAAACQMFLGKTEAEIAHIALETLEGHQRAIMAHMTVEEIYKDRQKFSEQVFKVASSDLVNMGISVVSYTLKDIHDDQDYLHSLGKARTAQVQKDARIGEAEAKRDAGIREAKAKQEKVSAQYLSEIEMAKAQRDYELKKAAYDIEVNTRRAQADLAYQLQVAKTKQQIEEQRVQVQVVERAQQVAVQEQEIARREKELEARVRKPAEAERYKLERLAEAEKSQLIMQAEAEAASVRMRGEAEAFAIGARARAEAEQMAKKAEAFQLYQEAAQLDMLLEKLPQVAEEISGPLTSANKITLVSSGSGTMGAAKVTGEVLDILTRLPESVERLTGVSISQVNHKPLRTA” as the sequence, how does the “soluble on expression in E. coli” value read?
Answer: not soluble

Question: For “MAHHHHHHMNKVVIISIFFFFFFQDHNNKSINSYNKINSSSTYTHSRILKQLEFITLEEKTVNALQEMLDSVEEDPSEKKCNRLLAKLKIRNEYHKHRKPHNYYARKNKKKEQKRQHLKKNKGKLNRLQQLEEKLFTHADLLRSAIFERTSRVPDGIFYT”, which “soluble on expression in E. coli” value is on record?
Answer: not soluble

Question: For “MGSDKIHHHHHHMSARIPTLDITRFDSDREAFVAELGAAYRQWGFAGIRNHGIAQSDIDAAYEVFKAFFALPDEVKRSYHVPGSGGARGYTAFGVETAKDSKHFDLKEFWHIGREIPDDSPYRAVMAPNLWPTEVPGFRERGYHLYQQLDQLGSRVLSALALHIGLPQDYFADKTDHGNSILRPIHYPPITSDDIPNVRAGAHGDINFITLLVGASAAGLEVRSNEGEWVPFTADADTIVVNIGDMLQRLTNHVYPSTIHRVVNPPGEEARKPRYSVPFFLHPNPDFLIDVLPSCISADNPSRYPEPITAHGFLEERLREIKLK”, which “soluble on expression in E. coli” value is on record?
Answer: not soluble

Question: For “RPSSVVIGTASQGGVYYIYGGGLAQLLDRELGVSSNVEVTGGPVHNMQLVNEQEQDIGMITMGPGYEGVLGEGEWTGGETYDNVRVIFPMYTTPFHWWSLESSGVTSIEDMDGMRVGVGPSGGTSGTYLPIIHEVLGLDITPVLAGANDMVSQQLDGQLDVIGFAAGLPIPAVAEVEAQRDIHLFGIDGENRDKVLEALPYFEPYTIPADTYDQLDEDLETIAMFNFGITYSEMNADFVYELVKAYHENNDLLMTTHSSAEEAVPEAILRNEVVPLHVGAIRYYEEIGIDLPESVYPAEWENE”, which “soluble on expression in E. coli” value is on record?
Answer: not soluble

Question: Which “soluble on expression in E. coli” value does the source give for “MAEFKEQVLDILEEVCENDIVKENLDVQLFEEGILDSFAVVSLLVEFQERLDIEVSISDFDRDEWATPNMVIKKLEEIR” here?
Answer: not soluble

Question: With “MGSDKIHHHHHHMKQLLAYCLSIILCVSFTGCMENYLDLYPEDKITSASFPENESDIKLLLNGVYAQLREKEVYNQGLFGFGITDGATPNAFNWGTDEVFNKLGAGRLSSSDGGVVTYRWKRCYEIISRANYLLACMDLVDLSEEAKAKYSGETHFLRGLAYSVLAETYGGVPIILTDISTEEARSLKRASLEETWQQALDDYEVAITNLGVDAPEPGRATKGAALGMKMRAYLYQGKYKEVLSCVEQIDALKKYGLFHSYEGLFDPANENNKEVLFDIQYIEGENSQGSYIDQYCGTGTGSWTRGSRYVPTDDLVAAYETIDGSPVDPENPYENRDPRLGFTAVLPGSYFLGYRFPNYLYPGGAFNHAGNRLKHLSTRKYRIQDESKLPPSGQSYINDIILRYADVLLSKAEAIIETNGNVADAIAILNRIRTERDDVKISLLPTSMSREEAREKVRHERRIELALEGRYWSDVKRWKIGKELYPMIIKDHEGSVIETKFPNGYLEYYDLLPIPDSERSLNPNLDQNPGW” as the sequence, how does the “soluble on expression in E. coli” value read?
Answer: not soluble

Question: For “LTVHYDLQLYKINYKTQSPDGNLTIASGLVAMPIHPVGQVGIISYQHGTRFERNDVPSRNNEKNYIYLAAYGNSAGYMTVMPDYLGLGDNELTLHPYVQAETLASSSIDMLFAAKELANRLHYPISDKLYLAGYSEGGFSTIVMFEMLAKEYPDLPVSAVAPGSAPYGWEETMHFVMLEPGPRATAYLAYFFYSLQTYKSYWSGFDEIFAPPYNTLIPELMDGYHAVDEILQALPQDPLLIFQPKFSNGIISKTDRNTEILKINFNHYDFKPTAPLLLVGTKGDRDVPYAGAEMAYHSFRKYSDFVWIKSVSDALDHVQAHPFVLKEQVDFFKQFERQE”, which “soluble on expression in E. coli” value is on record?
Answer: not soluble

Question: Which “soluble on expression in E. coli” value does the source give for “MQEYTNHSDTTFALRNISFRVPGRTLLHPLSLTFPAGKVTGLIGHNGSGKSTLLKMLGRHQPPSEGEILLDAQPLESWSSKAFARKVAYLPQQLPPAEGMTVRELVAIGRYPWHGALGRFGAADREKVEEAISLVGLKPLAHRLVDSLSGGERQRAWIAMLVAQDSRCLLLDEPTSALDIAHQVDVLSLVHRLSQERGLTVIAVLHDINMAARYCDYLVALRGGEMIAQGTPAEIMRGETLEMIYGIPMGILPHPAGAAPVSFVY” here?
Answer: soluble

Question: For “MGSDKIHHHHHHMVLGGPMSLNRYFTGGLLCLLGCNPANAQTATIVLSATLLPACEAGSVGSGGAITFGTLDFGQYASLNNAISATSQQGAGSIRVRCVSGQTYAITLDGGLYGSVATRRMANIANTALTLTYNLYSDRPGGIVWDNTTGVAATGNGNDQWYPIYGLVPAQTTPVAGTYRDTVNVTISW”, which “soluble on expression in E. coli” value is on record?
Answer: not soluble

Question: For “MSLDYSTSLRFQSQLERSMTEALNALGYYHPSIDFTVSEDNQRLRAAVTLGEVTRLSEVDIVIRGEAEGDRDFQRLIRRSGLRVDAPLNHSLYDNLKSGIRNLALQKGYFNGDFQASRLEVIPELNQARVILHFDSGIRYLFGATTVEGSQIDENRVMSLRPFKQGEPYLVSQVGEFNQNLSNTDWFSSVFVEPDLSQLDEGRELPIKVTLAPQARNQLETGLGYSTDVGVRGSLKWKKPWVNSQGHSFDSSFSLSIPEQTITAGYKIPLEDALNEYYRIQYGMKHLDKRDTESLESNLSLERHWQLDGGWHRTVFIRYLLENYRQGLQDDNSQFLLPGMTYTRTRTRSNSGLLTWGDKQTITLEYGDPALLSETRVLRLQTGSSWLRTYARNHRALVRVDGGANLVDEFDQLSPSLRFFAGGDNNLRGYGYKSISPQDASGALTGAKYIATSSIEYQYRLTGNWWAAMFMDVGDAFNDNPEWKKGVGTGIRWISPVGPIRLDFAWGLDAAPGDEFKIHFTLGPELEGHHHHHH”, which “soluble on expression in E. coli” value is on record?
Answer: not soluble
